In paper PMC6935267 (Cell Reports, 2019) one finds Kd data, which are given here for one molecule.

This test deals with T1, MERS-CoV S1-NTD (residues 1-351) with 8xHis-tag and Twin-Strep-tag (MERS-CoV (deposit 6PXH of this paper)).
T1 chain: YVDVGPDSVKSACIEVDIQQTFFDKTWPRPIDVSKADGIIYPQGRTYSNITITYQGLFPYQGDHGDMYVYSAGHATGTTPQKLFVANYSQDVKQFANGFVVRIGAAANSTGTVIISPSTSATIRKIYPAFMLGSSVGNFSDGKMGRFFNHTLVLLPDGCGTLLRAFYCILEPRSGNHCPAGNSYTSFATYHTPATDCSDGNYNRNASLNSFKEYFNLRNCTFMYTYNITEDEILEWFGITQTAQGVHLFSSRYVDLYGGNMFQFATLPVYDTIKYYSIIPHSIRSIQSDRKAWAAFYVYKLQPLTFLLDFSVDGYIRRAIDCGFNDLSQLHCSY
The test can be described thus: SPR.

B1: G2 Fab (Fab, V domains shown)
VH: QVQLQQSGGELVKPGASVKLSCKTSGFTFSSSYISWLKQKPGQSLEWIAWIYAGTGGTEYNQKFTGKAQVTVDTSSSTAYMQFSSLTTEDSAIYYCARGGSSFAMDYWGQGTSVTVSS
VL: not shown
The term Kd denotes the constant that tells how readily two partners part at equilibrium. The low end stands for higher affinity, the high end for lower affinity. Turning to B1, the Kd came out at 0.028 µM.
